target: Hck (UniProt P08631); assay: phosphorylation enrichment, bacterial display (enrichment ratio); higher = better substrate or ligand; peptides without Tyr show the background
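Note: 11-residue human phosphosite peptides and single-mutation variants displayed on the E. coli surface, counted by deep sequencing, each peptide's frequency after selection divided by its frequency in the unselected input library; frequency after pTyr selection over input frequency; kinase dosed for 20-30% of maximal phosphorylation in three min.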

Chain of Hck (P08631 whole entry, looked up): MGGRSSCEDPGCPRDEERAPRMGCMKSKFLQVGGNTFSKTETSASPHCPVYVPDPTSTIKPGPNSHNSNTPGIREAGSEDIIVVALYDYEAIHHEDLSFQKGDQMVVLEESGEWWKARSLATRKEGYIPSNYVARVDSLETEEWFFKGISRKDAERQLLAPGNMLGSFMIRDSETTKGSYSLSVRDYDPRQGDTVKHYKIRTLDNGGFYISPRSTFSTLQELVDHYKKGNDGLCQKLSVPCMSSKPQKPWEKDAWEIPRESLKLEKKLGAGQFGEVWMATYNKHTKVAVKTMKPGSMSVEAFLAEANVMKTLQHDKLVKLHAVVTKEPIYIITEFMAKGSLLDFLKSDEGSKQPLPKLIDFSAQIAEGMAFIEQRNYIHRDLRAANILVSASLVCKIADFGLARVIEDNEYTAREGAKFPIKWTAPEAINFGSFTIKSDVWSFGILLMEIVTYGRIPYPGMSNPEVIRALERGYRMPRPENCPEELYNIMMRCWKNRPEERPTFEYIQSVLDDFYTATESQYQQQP

Sequence | phosphorylation enrichment
LITTPYIGFLG [KCNQ1_Y267_L266P] | 0.473
RIPFRYPKEFQ [IDS_Y234_H229R] | 1.07
LEIETDRRLLD [KRT12_Y429_Y429D] | 1.08
MLEVSYVDRNS [F10_Y384_P383S] | 0.437
GTHCHYKAPTV [FZD9_Y569] | 0.429
PEVRRYVLPLN [RPE65_Y368] | 0.916
SSFPDYLAAVD [GLB1_Y154_D151Y_YF] | 0.576
YCRHNYGVVES [HLA-DRB1_Y112] | 0.458
LGKLTYPVGFW [NTHL1_Y177_I176T] | 1.23
LIDSSYLTRTA [GREB1L_Y1063] | 0.425
QQLDKYQELLD [LMNA_Y359_E358K] | 0.441
QMWLKYSQSDL [SMC1A_Y714_R711W] | 0.546
SNNFIYTTLGV [FAM83B_Y639_K640T_YF] | 7.53
FDDIACIRKTL [PIK3CA_Y1021_Y1021C] | 0.448
CQASLYPSNHD [LRIG1_Y996_G993A] | 0.595
SVVVPYEPTEV [TP53_Y220_P223T] | 0.506
IRTIDYRYTVS [IDS_Y497_W502S] | 0.532

Sequence | phosphorylation enrichment
HNLDFYKETTN [FGFR3_Y648_K650E_YF] | 0.53
GGFNNYGFGSD [HNRNPH3_Y159_N163S_YF] | 0.454
MEIHAYLKLLE [LMNA_Y376_R377L] | 0.574
NRLTDYYEPLL [BBS10_Y536] | 3.28
AGVDRYSLGTS [C5orf42_Y1451_P1446A] | 0.455
TRDTDYQMTKR [ADA_Y308_L304R] | 0.373
FADIAYNFRQG [PAH_Y166_H170Q_YF] | 0.505
RDSQIYAVDFE [MRPS34_Y34_L33I_YF] | 2.83
EREFKYGAHNF [OAT_Y50_YF] | 0.386
QRKPSYNQLPS [BRCA2_Y71_A75P] | 0.691
RNVLVYDKLNV [ROR2_Y624] | 13.9
SAVVPYEPPEV [TP53_Y220_V216A] | 0.513
LITTLYIGFLD [KCNQ1_Y267_G272D] | 1.71
NGSFRYVIISQ [LRP1B_Y1988] | 0.657
IPGRYYETGSI [PAX2_Y73_L69P] | 0.428
GRERPYGGGGG [FUS_Y526_R521G] | 0.787

target: Jak2 (UniProt O60674); assay: as above
Sequence (O60674 whole entry, looked up): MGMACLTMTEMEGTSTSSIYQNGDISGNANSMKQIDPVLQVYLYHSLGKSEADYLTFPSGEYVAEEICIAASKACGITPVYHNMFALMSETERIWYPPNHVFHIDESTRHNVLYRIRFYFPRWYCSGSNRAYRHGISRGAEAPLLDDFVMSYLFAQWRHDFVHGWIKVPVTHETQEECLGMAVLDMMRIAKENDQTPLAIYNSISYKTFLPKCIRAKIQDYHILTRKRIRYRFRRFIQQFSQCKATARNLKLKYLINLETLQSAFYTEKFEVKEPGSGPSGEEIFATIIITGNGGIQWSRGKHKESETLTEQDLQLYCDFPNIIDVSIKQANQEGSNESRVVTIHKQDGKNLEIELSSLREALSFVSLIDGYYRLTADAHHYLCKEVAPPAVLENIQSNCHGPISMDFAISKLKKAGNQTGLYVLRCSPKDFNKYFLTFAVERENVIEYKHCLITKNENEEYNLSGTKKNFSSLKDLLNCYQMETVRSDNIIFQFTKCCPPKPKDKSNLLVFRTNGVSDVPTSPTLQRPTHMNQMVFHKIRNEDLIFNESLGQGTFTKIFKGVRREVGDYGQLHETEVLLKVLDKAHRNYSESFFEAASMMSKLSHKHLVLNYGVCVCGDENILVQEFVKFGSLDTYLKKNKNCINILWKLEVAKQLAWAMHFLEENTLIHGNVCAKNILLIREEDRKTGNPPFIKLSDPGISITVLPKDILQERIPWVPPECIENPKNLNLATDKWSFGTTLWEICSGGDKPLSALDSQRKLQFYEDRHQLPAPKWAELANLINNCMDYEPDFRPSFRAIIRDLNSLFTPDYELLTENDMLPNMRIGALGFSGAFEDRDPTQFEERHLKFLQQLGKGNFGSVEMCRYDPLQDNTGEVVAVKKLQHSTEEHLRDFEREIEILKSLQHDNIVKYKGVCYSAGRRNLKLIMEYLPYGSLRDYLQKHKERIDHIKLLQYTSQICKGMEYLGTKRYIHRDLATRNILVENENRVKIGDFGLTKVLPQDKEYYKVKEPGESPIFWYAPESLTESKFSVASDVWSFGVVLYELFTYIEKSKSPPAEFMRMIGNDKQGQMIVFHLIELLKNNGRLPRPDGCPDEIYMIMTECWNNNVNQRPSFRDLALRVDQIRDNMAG

Sequence | phosphorylation enrichment
LITTPYIGFLG [KCNQ1_Y267_L266P] | 0.983
RIPFRYPKEFQ [IDS_Y234_H229R] | 1.48
LEIETDRRLLD [KRT12_Y429_Y429D] | 2.8
MLEVSYVDRNS [F10_Y384_P383S] | 0.876
GTHCHYKAPTV [FZD9_Y569] | 0.667
PEVRRYVLPLN [RPE65_Y368] | 1.2
SSFPDYLAAVD [GLB1_Y154_D151Y_YF] | 0.925
YCRHNYGVVES [HLA-DRB1_Y112] | 0.681
LGKLTYPVGFW [NTHL1_Y177_I176T] | 2.04
LIDSSYLTRTA [GREB1L_Y1063] | 0.651
QQLDKYQELLD [LMNA_Y359_E358K] | 1.33
QMWLKYSQSDL [SMC1A_Y714_R711W] | 1.27
SNNFIYTTLGV [FAM83B_Y639_K640T_YF] | 0.666
FDDIACIRKTL [PIK3CA_Y1021_Y1021C] | 0.787
CQASLYPSNHD [LRIG1_Y996_G993A] | 1.01
SVVVPYEPTEV [TP53_Y220_P223T] | 1.27
IRTIDYRYTVS [IDS_Y497_W502S] | 0.713

Sequence | phosphorylation enrichment
HNLDFYKETTN [FGFR3_Y648_K650E_YF] | 1.48
GGFNNYGFGSD [HNRNPH3_Y159_N163S_YF] | 0.68
MEIHAYLKLLE [LMNA_Y376_R377L] | 1.62
NRLTDYYEPLL [BBS10_Y536] | 1.63
AGVDRYSLGTS [C5orf42_Y1451_P1446A] | 0.498
TRDTDYQMTKR [ADA_Y308_L304R] | 0.525
FADIAYNFRQG [PAH_Y166_H170Q_YF] | 0.701
RDSQIYAVDFE [MRPS34_Y34_L33I_YF] | 1.15
EREFKYGAHNF [OAT_Y50_YF] | 0.483
QRKPSYNQLPS [BRCA2_Y71_A75P] | 0.72
RNVLVYDKLNV [ROR2_Y624] | 0.632
SAVVPYEPPEV [TP53_Y220_V216A] | 0.998
LITTLYIGFLD [KCNQ1_Y267_G272D] | 3.07
NGSFRYVIISQ [LRP1B_Y1988] | 0.958
IPGRYYETGSI [PAX2_Y73_L69P] | 0.573
GRERPYGGGGG [FUS_Y526_R521G] | 0.512

Reference: the supplement of paper PMC10065799, “High-throughput profiling of sequence recognition by tyrosine kinases and SH2 domains using bacterial peptide display” (eLife, 2023)
